Source: US9566335

Columns and labels:
[1] = target: biotinylated peptide X-…(biotin), X = Y; assay: phage ELISA, biotinylated peptide on neutravidin
[2] = target: biotinylated peptide X-…(biotin), X = F; assay: phage ELISA, biotinylated peptide on neutravidin
[3] = target: biotinylated peptide X-…(biotin), X = Y; assay: phage ELISA, biotinylated peptide on neutravidin; phage 10×
[4] = target: biotinylated peptide X-…(biotin), X = F; assay: as above

Substance: Phage displayed wild-type E. coli ClpS (truncated wildtype ClpS polypeptide, FLAG-tagged, fused to phage coat protein p3) (from UniProt A7ZJU9 23-106)
- phage ELISA signal (A450) [1]: 1.08
- phage ELISA signal (A450) [2]: 1.81
- phage ELISA signal (A450) [3]: 1.08
- phage ELISA signal (A450) [4]: 1.81
